In article PMC2637931:

Legend:
[1] = target: sTFR with 5-hydroxytryptophan substituted for Trp (UniProt P02786)
[2] = target: soluble portion of the transferrin receptor expressed as a recombinant entity (UniProt P02786)
Sequence of soluble portion of the transferrin receptor expressed as a recombinant entity (P02786 122-760): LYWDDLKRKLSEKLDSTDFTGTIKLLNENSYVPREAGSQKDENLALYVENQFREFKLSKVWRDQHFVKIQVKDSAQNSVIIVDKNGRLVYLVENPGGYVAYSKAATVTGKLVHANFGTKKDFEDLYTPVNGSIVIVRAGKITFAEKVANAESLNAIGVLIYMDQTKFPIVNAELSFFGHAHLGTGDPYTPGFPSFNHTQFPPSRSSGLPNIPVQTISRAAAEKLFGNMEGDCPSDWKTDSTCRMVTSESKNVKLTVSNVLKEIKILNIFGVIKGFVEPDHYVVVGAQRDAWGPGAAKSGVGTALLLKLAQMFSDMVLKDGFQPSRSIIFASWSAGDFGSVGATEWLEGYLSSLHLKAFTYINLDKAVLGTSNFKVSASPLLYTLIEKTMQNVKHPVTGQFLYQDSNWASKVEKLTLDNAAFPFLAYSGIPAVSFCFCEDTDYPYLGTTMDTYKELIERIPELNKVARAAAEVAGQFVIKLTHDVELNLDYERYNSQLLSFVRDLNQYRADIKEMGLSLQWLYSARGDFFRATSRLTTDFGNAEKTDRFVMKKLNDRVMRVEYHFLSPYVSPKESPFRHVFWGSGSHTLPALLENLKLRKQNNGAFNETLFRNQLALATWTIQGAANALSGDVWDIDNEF

- k (obsC1) of iron release from the complex at pH 5.6, excitation 280 nm [1]: 18.1 min^-1
- k (obsC1) of iron release from the complex at pH 5.6, excitation 315 nm [1]: 22.4 min^-1
- k (obsC2) of iron release from the complex at pH 5.6, excitation 280 nm [1]: 4 min^-1
- k (obsC2) of iron release from the complex at pH 5.6, excitation 315 nm [1]: 3.4 min^-1
- k (obsC1) of iron release from the complex at pH 5.6, excitation 280 nm [2]: 25.8 min^-1
- k (obsC1) of iron release from the complex at pH 5.6, excitation 315 nm [2]: 14.1 min^-1
- k (obsC2) of iron release from the complex at pH 5.6, excitation 280 nm [2]: 8.3 min^-1
- k (obsC2) of iron release from the complex at pH 5.6, excitation 315 nm [2]: 2.8 min^-1
Substance: FeC hTF with 5-hydroxytryptophan substituted for Trp (from UniProt P02787 20-698) (ligand)
